{"source": "patent US8969289", "molecules": {"B1": {"name": "SABA1-FGF21v1 (designed binder)", "chain": "MGVSDVPRDLEVVAATPTSLLISWHSYYEQNSYYRITYGETGGNSPVQEFTVPYSQTTATISGLKPGVDYTITVYAVYGSKYYYPISINYRTEIEKPSQGSGSGSGSGSGSGSPIPDSSPLLQFGGQVRQRYLYTDDAQQTEAHLEIREDGTVGGAADQSPESLLQLKALKPGVIQILGVKTSRFLCQRPDGALYGSLHFDPEACSFRELLLEDGYNVYQSEAHGLPLHLPGNKSPHRDPAPRGPARFLPLPGLPPALPEPPGILAPQPPDVGSSDPLSMVGPSQGRSPSYAS", "notes": "Single-chain fusion: SABA core 1 with AdNT1 leader and AdCT7 tail, (GS)7 linker, FGF21 core with FNT3 leader and C-terminal S; also called SABA-FGF21v1 fusion; FGF21-SABA fusion"}, "B2": {"name": "SABA4.1 (designed binder)", "chain": "MGVSDVPRDLEMVAATPTSLLISWEDDSYYSRYYRITYGETGGNSPVQEFTVPSDLYTATISGLKPGVDYTITVYAVTYDVTDLIMHEPISINYRTEIDKPSQHHHHHH", "notes": "Core 4 Adnectin (carries a scaffold mutation) with AdNT1, AdCT1 and His6"}, "B3": {"name": "SABA5.1 (designed binder)", "chain": "MGVSDVPRDLEVVAATPTSLLISWEDDSYYSRYYRITYGETGGNSPVQEFTVPSDLYTATISGLKPGVDYTITVYAVTYDVTDLIMHEPISINYRTEIDKPSQHHHHHH", "notes": "Scaffold-perfect version of SABA4 with the same BC, DE and FG loops; AdNT1, AdCT1 and His6"}, "B4": {"name": "SABA1.7-(ED)5G-Cys-PEG20-Amylin-CONH2 (designed binder)", "chain": "MGVSDVPRDLEVVAATPTSLLISWHSYYEQNSYYRITYGETGGNSPVQEFTVPYSQTTATISGLKPGVDYTITVYAVYGSKYYYPISINYRTEIEDEDEDEDEDGC", "modifications": "Maleimide-PEG20 spacer (X1) between the Cys after (ED)5G and the amylin peptide; disulfide bridge between the two Cys of the amylin part; C-terminal amidation"}}, "key": {"[1]": {"molecular_target": "β-klotho of differentiated 3T3-L1 adipocytes (mouse) (UniProt Q99N32)", "sequence (Q99N32 whole entry)": "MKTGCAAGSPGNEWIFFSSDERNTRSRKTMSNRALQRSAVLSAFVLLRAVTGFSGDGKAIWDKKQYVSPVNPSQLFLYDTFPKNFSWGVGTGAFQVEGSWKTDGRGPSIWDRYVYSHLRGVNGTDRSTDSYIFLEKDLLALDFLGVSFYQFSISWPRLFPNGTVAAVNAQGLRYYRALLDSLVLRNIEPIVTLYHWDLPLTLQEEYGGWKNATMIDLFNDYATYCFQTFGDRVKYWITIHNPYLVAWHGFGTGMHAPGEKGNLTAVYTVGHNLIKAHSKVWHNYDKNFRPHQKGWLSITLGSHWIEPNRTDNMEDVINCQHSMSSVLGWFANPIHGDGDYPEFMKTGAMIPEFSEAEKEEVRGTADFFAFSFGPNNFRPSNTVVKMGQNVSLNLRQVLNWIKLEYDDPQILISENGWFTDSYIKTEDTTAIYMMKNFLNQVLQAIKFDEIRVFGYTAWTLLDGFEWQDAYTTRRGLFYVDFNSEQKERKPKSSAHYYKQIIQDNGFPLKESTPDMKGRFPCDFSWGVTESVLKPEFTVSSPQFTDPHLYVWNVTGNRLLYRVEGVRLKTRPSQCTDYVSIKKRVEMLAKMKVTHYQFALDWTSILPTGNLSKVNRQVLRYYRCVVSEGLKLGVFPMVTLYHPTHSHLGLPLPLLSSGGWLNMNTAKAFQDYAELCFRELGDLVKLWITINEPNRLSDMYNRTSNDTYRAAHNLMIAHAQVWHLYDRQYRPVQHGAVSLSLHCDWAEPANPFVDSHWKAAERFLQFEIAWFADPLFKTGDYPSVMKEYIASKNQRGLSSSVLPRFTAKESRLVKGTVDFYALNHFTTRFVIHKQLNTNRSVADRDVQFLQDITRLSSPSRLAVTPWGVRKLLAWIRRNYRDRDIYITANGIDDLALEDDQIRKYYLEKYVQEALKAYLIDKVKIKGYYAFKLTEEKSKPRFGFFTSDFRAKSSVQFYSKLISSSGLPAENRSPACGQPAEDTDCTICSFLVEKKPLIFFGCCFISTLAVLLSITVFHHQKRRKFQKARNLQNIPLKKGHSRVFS", "test": "cell-based or functional assay"}, "human β-klotho (human)": {"molecular_target": "human β-klotho (human) (UniProt Q86Z14)", "test": "cell-based or functional assay"}, "Amylin receptor": {"molecular_target": "Amylin receptor (chimpanzee; human, UniProt O60896 24-148)", "sequence (O60896 24-148)": "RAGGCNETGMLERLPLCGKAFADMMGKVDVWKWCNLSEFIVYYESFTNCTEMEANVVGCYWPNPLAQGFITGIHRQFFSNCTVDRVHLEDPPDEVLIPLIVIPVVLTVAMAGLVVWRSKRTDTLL", "test": "cell-based or functional assay"}, "human serum albumin [2]": {"molecular_target": "T1, human serum albumin (human, UniProt P02768 25-609)", "T1 construct": "mature; Purified or recombinant albumin from suppliers; also called HSA; HuSA", "test": "isothermal titration calorimetry (refers to FIG. 11)", "procedure": "SABA-FGF21 fusion protein plus buffer was placed in the instrument sample cell at a concentration range of 0.4 to 1.0 mg/mL protein. The matching buffer was placed in the reference cell. Concentrations were determined using extinction coefficients calculated from the protein sequences of the pure proteins. The instrument reaction cell was equilibrated at 37° C. […] The resultant thermogram data was fitted using Origin™ evaluation software package (Microcal Inc.) version 2.0.2 to estimate the stochiometry, enthalpy, and equilibrium disassociation constant (K_D) of the protein-protein binding reaction."}, "human serum albumin [3]": {"molecular_target": "T1, human serum albumin", "test": "comment in the summary table; Biacore at lowered pH; target not given, HSA by paragraph 278"}}, "note": "Positions of bridges follow the written chain, without caps; N, C: chain ends. No end group written: not given here.", "data": [{"molecule": "His-tagged FGF21 (from UniProt Q9NSA1 29-209) (ligand)", "values": [{"measurement": "EC50, pERK 1/2 in 3T3-L1 adipocytes", "setting": "[1]", "value": 4, "unit": "nM"}, {"measurement": "Fold Activation, pERK 1/2 in 3T3-L1 adipocytes", "setting": "[1]", "value": 2.1, "unit": "fold"}, {"measurement": "EC50 (potency), pERK 1/2 in HEK β-Klotho expressing stable cells", "setting": "human β-klotho (human)", "value": 7, "unit": "nM"}, {"measurement": "Efficacy (% of His6-tagged FGF21 maximal activity), pERK 1/2 in HEK β-Klotho expressing stable cells", "setting": "human β-klotho (human)", "value": 100, "unit": "%"}]}, {"molecule": "KCNTATCATQRLANFLVRSSNNLGPVLPPTNVGSNTY-NH2 (disulfide 2-7)", "note": "[Amylin Control Peptide]", "values": [{"measurement": "Efficacy (% of native peptide ligand maximal activity), cellular cAMP assay", "setting": "Amylin receptor", "value": 100, "unit": "%"}]}, {"molecule": "B1", "values": [{"measurement": "Kd", "setting": "human serum albumin [2]", "value": "~4", "unit": "nM"}]}, {"molecule": "B2", "values": [{"measurement": "fold decrease in KD at pH < 6.0", "setting": "human serum albumin [3]", "value": "> 2", "unit": "fold"}]}, {"molecule": "B3", "values": [{"measurement": "fold decrease in KD at pH < 6.0", "setting": "human serum albumin [3]", "value": "> 2", "unit": "fold"}]}, {"molecule": "B4", "values": [{"measurement": "Cell based Potency (EC50), cellular cAMP assay", "setting": "Amylin receptor", "value": 12.2, "unit": "nM"}, {"measurement": "Efficacy (% of native peptide ligand maximal activity), cellular cAMP assay", "setting": "Amylin receptor", "value": 119, "unit": "%"}]}]}
